Source: US20230243070A1 (Molecular Partners, published 2023)

Legend:
[1] = molecular target: EBNApMHC (HLA-A*0201:EBNA-1), biotinylated recombinant complex (human; Epstein Barr virus); experiment: SPR (ProteOn), biotinylated pMHC on NLC chip
[2] = molecular target: NYESOAApMHC (HLA-A*0201:NYESO1-9VAA), biotinylated recombinant complex (human); experiment: SPR (ProteOn), biotinylated pMHC on NLC chip
[3] = molecular target: T1, NYESOpMHC (HLA-A*0201:NYESO1-9V), biotinylated recombinant complex (human); experiment: SPR (ProteOn), biotinylated pMHC on NLC chip, PBS with Tween
T1 construct: also called NY-ESO-1 peptide-MHC complex

[4] = molecular target: T2, MAGEA3pMHC, biotinylated recombinant complex (HLA-A*0101, MAGE-A3 peptide) (human); experiment: ribosome display selection, crude extract HTRF
T2 construct: also called MAGE-A3 peptide-MHC complex

[5] = molecular target: T3, HBVc18pMHC, biotinylated recombinant complex (HLA-A*0201: HBVc18) (human; Hepatitis B virus); experiment: SPR (ProteOn)
T3 construct: also called HBVc18 peptide-MHC complex

B1: DARPin® protein #24 (designed binder)
chain: MRGSHHHHHHGSDLGEKLLYAAFYGQDDEVRILLTAGADVNAKDKYGLTPLHRAATHGHLEIVEVLLKAGADVNAKDEWGTTPLHIAAIFGHLEIVEVLLKAGADVNAQDEQGNTPADLAAVIGHEDIAEVLQKAA
binding result [1]: no binding (tested: 3.7 nM to 300 nM, or 250 nM single trace)
binding result [2]: no binding
Kd [3]: 0.939 nM

B2: SEQ ID NO 172 (designed binder)
chain: GSDLGKKLLQAARAGQLDEVRELLKAGADVNAKDEWGATPLHLAAYAGHLEIVEVLLKAGADVNAKDRWGLTPLHVAAVEGHLEIVEVLLKAGADVNAKDIEGETPLHIAAFTGHLEIVEVLLKAGADVNAQDKSGKTPADLAARAGHQDVAEVLQKAA
binding result [4]: binds

B3: DARPin® protein comprising SEQ ID NO 221 (linked to a CD3-specific binding agent) (designed binder)
chain: GSDLGQKLLLAAAIGQDDEVRILLAAGADVNAKDESGHTPLHYAAHVGHLEIVEVLLKAGDVNAKDHRGFTPLHVAAQIGHLEIVEVLLKAGADVNAQDNWGITPADLAAWWGHEDIAEVLQKAA
Kd [5]: 0.369 nM

B4: SEQ ID NO 157 (designed binder)
chain: GSDLGYKLLYAALFGQDDEVRILLAAGADVNAKDYFGKTPLHIAAYYGHLEIVEVLLKAGADVNAKDRYGITPLHLAALEGHLEIVEVLLKAGADVNAQDTDGITPADLAAWEGHEDIAEVLQKAA
binding result [4]: binds

B5: DARPin® protein comprising SEQ ID NO 225 (linked to a CD3-specific binding agent) (designed binder)
chain: GSDLGIKLLFAANFGQDDEVRILLAAGADVNAKDQSGRTPLHLAALWGHLEIVEVLLKAGADVNAKDVFGLTPLHIAATFGHLEIVEVLLKAGVDVNAQDYTGHTPADLAALIGHEDIAEVLQKAA
Kd [5]: 9.23 nM

B6: SEQ ID NO 160 (designed binder)
chain: GSDLGKKLLQAAQAGQDDEVRELLKAGADVNAKDEWGRTPLHVAAYWGHLEIVEVLLKAGADVNAKDSFGLTPLHLAAIEGHLEIVEVLLKAGADVNAQDQQGATPADLAALLGHEDIAEVLQKAA
binding result [4]: binds

B7: SEQ ID NO 167 (designed binder)
chain: GSDLGKKLLQAARAGQLDEVRELLKAGADVNAKDSSGWTPLHLAAYTGHLEIVEVLLKAGADVNAKDQWGLTPLHLAALEGHLEIVEVLLKAGADVNAKDHTGKTPLHLAAQQGHLEIVEVLLKAGADVNAQDKSGKTPADLAARAGHQDIAEVLQKAA
binding result [4]: binds

B8: DARPin® protein comprising SEQ ID NO 230 (linked to a CD3-specific binding agent) (designed binder)
chain: GSDLGKKLLQAARAGQLDEVHELLKAGADVNAKDQHGKTPMHLAAQIGHLEIVEVLLKAGADVNAKDHIGWTPLHLAASVGHLEIVEVLLKAGADVNAKDQEGWTPLHVAAQLGHLEIVEVLLKAGADVNAQDKSGKTPADLAARAGHQDSAEVLQKAA
Kd [5]: 9.33 nM

B9: DARPin® protein #33 (designed binder)
chain: MRGSHHHHHHGSDLGKKLLQAARAGQLDEVRELLKAGADVNAKDAIGQTPLHLAAFRGHLEIVEVLLKAGADVNAKDVAGWTPLHIAAAYGHLEIVEVLLKAGADVNAKDAYGQTPLHLAAFQGHLEIVEVLLKAGADVNAQDKSGKTPADLAARAGHQDIAEVLQKAA
binding result [1]: no binding (tested: 3.7 nM to 300 nM, or 250 nM single trace)
binding result [2]: no binding
Kd [3]: 0.108 nM

B10: DARPin® protein #28 (designed binder)
chain: MRGSHHHHHHGSDLGQKLLKAAALGQDDEVRDLLKAGADVNAKDYQGQTPLHLAAWTGHLEIVEVLLKAGADVNAKDHFGYTPLHIAAHFGHLEIVEVLLKAGADVNAQDAAGQTPADLAAAEGHEDIAEVLQKAA
binding result [1]: no binding (tested: 3.7 nM to 300 nM, or 250 nM single trace)
binding result [2]: no binding
Kd [3]: 2.57 nM

B11: DARPin® protein comprising SEQ ID NO 226 (linked to a CD3-specific binding agent) (designed binder)
chain: GSDLGKKLLSAAQSGQDDEVRILLGAGADVNAKDKWGHTPLHLAAVKGHLEIAEVLLKAGADVNAKDEWGSTPLHLAASQGHLEIVEVLLKAGADVNAKDKKGATPLHLAALVGHLEIVEVLLKAVADVNAQDKSGKTPADLAARAGHQDIAEVLQKAA
Kd [5]: 13.8 nM

B12: DARPin® protein #25 (designed binder)
chain: MRGSHHHHHHGSDLGNKLLSAAIRGQDDEVRILLAAGADVNAKDIHGHTPLHAAAQFGHLEIVEVLLKAGADVNAKDFYGLTPLHLAAIFGHLEIVEVLLKAGADVNAQDEEGKTPADLAAVIGHEDIAEVLQKAA
binding result [1]: no binding (tested: 3.7 nM to 300 nM, or 250 nM single trace)
binding result [2]: no binding
Kd [3]: 0.172 nM

B13: DARPin® protein #27 (designed binder)
chain: MRGSHHHHHHGSDLGFKLLQAAHYGQDDEVRILLAAGADVNAKDEYGRTPLHHAALKGHLEIVEVLLKAGADVNAKDEFGTTPLHYAAIFGHLEIVEVLLKAGADVNAQDSSGFTPADLAALVGHEDIAEVLQKAA
binding result [1]: no binding (tested: 3.7 nM to 300 nM, or 250 nM single trace)
binding result [2]: no binding
Kd [3]: 0.494 nM

B14: DARPin® protein #26 (designed binder)
chain: MRGSHHHHHHGSDLGEKLLFAAFIGQDDEVRILLAAGADVNAKDEYGHTPLHAAAQHGHLEIVEVLLKAGADVNAKDQFGLTPLHIAAIFGHLEIVEVLLKAGADVNAQDHAGYTPADLAAWQGHEDIAEVLQKAA
binding result [1]: no binding (tested: 3.7 nM to 300 nM, or 250 nM single trace)
binding result [2]: no binding
Kd [3]: 1.29 nM

B15: SEQ ID NO 165 (designed binder)
chain: GSDLGEKLLQAALEGQDDEVRELLKAGADVNAKDLVGWTPLHIAAYRGHLEIVEVLLKAGADVNAKDWVGLTPLHLAAIEGHLEIVEVLLKAGADVNAQDREGKTPADLAALLGHEDIAEVLQKAA
binding result [4]: binds

B16: DARPin® protein comprising SEQ ID NO 220 (linked to a CD3-specific binding agent) (designed binder)
chain: GSDLGHKLLFAASAGQDDEVRILLAAGADVNAKDESGQTPLHYAAFVGHLEIVEVLLKAGADVNAKDQWGHTPLHVAATFGHLEIVEVLLKAGADVNAQDTWGTTPADLAATFGHEDIAEVLQKAA
Kd [5]: 4.65 nM

B17: DARPin® protein comprising SEQ ID NO 224 (linked to a CD3-specific binding agent) (designed binder)
chain: GSDLGFKLLEAALEGQDDEVRILLAAGADVNAKDESGQTPLHYAAFVGHLEIVEVLLKAGADVNAKDQWGHTPLHVAATFGHLEIVEVLLKAGADVNAQDTWGTTPADLAATFGHEDIAEVLQKAA
Kd [5]: 0.736 nM

B18: DARPin® protein comprising SEQ ID NO 228 (linked to a CD3-specific binding agent) (designed binder)
chain: GSDLGWKLLHAATTGQDDEVRILLAAGADVNAKDESGQTPLHYAAFVGHLEIVEVLLKAGADVNAKDQWGHTPLHVAATFGHLEIVEVLLKAGADVNAQDTWGTTPADLAATFGHEDIAEVLQKAA
Kd [5]: 4.72 nM

B19: DARPin® protein comprising SEQ ID NO 229 (linked to a CD3-specific binding agent) (designed binder)
chain: GSDLGSKLLYAAISGQDDEVRILLAAGADVNAKDESGQTPLHYAAFVGHLEIVEVLLKAGADVNAKDQWGHTPLHVAATFGHLEIVEVLLKAGADVNAQDTWGTTPADLAATFGHEDIAVVLQKAA
Kd [5]: 1.03 nM

B20: SEQ ID NO 169 (designed binder)
chain: GSDLGKKLLQAARAGQLDEVRELLKAGADVNAKDHWGKTPLHLAAYEGHLEIVEVLLKAGADVNAKDLFGLTPLHLAAIEGHLEIVEVLLKAGADVNAKDSFGYTPLHVAAQVGHLEIVEVLLKAGADVNAQDKSGKTPADLAARAGHQDIAEVLQKAA
binding result [4]: binds

B21: DARPin® protein #32 (designed binder)
chain: MRGSHHHHHHGSDLGKKLLQAARAGQLDEVRELLKAGADVNAKDYFGSTPLHLAQLGHLEIVEVLLKAGADVNAKDYQGHTPLHVDAFHGHLEIVEVLLKAGADVNAKDQWGVTPLHLAAEWGHLEIVEVLLKAGADVNAQDKSGKTPADLAARAGHQDIAEVLQKAA
binding result [1]: no binding (tested: 3.7 nM to 300 nM, or 250 nM single trace)
binding result [2]: no binding
Kd [3]: 1.63 nM

B22: DARPin® protein #23 (designed binder)
chain: MRGSHHHHHHGSDLGIKLLYAANSGQDDEVRILLAAGADVNAKDEYGDTPLHKAAEYGHLEIVEVLLKAGADVNAKDVYGITPLHLAAIFGHLEIVEVLLKAGADVNAQDKKGHTPADLAAFVGHEDIAEVLQKAA
binding result [1]: no binding (tested: 3.7 nM to 300 nM, or 250 nM single trace)
binding result [2]: no binding
Kd [3]: 0.0939 nM

B23: DARPin® protein #30 (designed binder)
chain: MRGSHHHHHHGSDLGKKLLQAARAGQLDEVRELLKAGADVNAKDRFGIPLHIAASQGHLEIVEVLLKAGADVNAKDHWGETPLHLAAVFGHLEIVEVLLKAGADVNAKDHTGQTPLHLAAYLGHLEIVEVLLKAGADVNAQDKSGKTPADLAARAGHQDIAEVLQKAA
binding result [1]: no binding (tested: 3.7 nM to 300 nM, or 250 nM single trace)
binding result [2]: no binding
Kd [3]: 2.33 nM

B24: DARPin® protein comprising SEQ ID NO 222 (linked to a CD3-specific binding agent) (designed binder)
chain: GSDLGYKLLTAAIVGQDDEVRILLAAGADVNAKDQSGLTPLHLAAAYGHLEIVEVLLKAGADVNAKDKHGRTPLHLAALEGHLEIVEVLLKAGADVNAQDQFGITPADLAAAVGHEDIAEVLQKAA
Kd [5]: 7.15 nM

B25: DARPin® protein comprising SEQ ID NO 227 (linked to a CD3-specific binding agent) (designed binder)
chain: GSDLGQKLLTAAIVGQDDEVRILLAAGADVNAKDQSGLTPLHLAAAYGHLEIVEVLLKAGADVNAKDKHGRTPLHLAALEGHLEIVEVLLKAGADVNAQDQFGITPADLAAAVGHEDIAEVLQKAA
Kd [5]: 7.1 nM
